Assay results: FireProtDB (doi:10.1021/bi00165a022)

Settings: Escherichia phage lambda, Thermal, DSC, Potassium phosphate 20 nM, whole UniProt chain shown

B1: Regulatory protein cro wild type, P03040 (protein)
chain: MEQRITLKDYAMRFGQTKTAKDLGVYQSAINKAIHAGRKIFLTINADGSVYAEEVKPFPSNKKTTA
pH 5.18
  Tm: 35.5 °C
  heat capacity change of unfolding: 1.51 kcal/mol/K
  unfolding enthalpy (calorimetric): 34.9 kcal/mol
  unfolding enthalpy (van 't Hoff): 37.3 kcal/mol
pH 5.48
  Tm: 38 °C
  heat capacity change of unfolding: 1.61 kcal/mol/K
  unfolding enthalpy (calorimetric): 39 kcal/mol
  unfolding enthalpy (van 't Hoff): 40.7 kcal/mol
pH 6
  Tm: 44 °C
  heat capacity change of unfolding: 1.66 kcal/mol/K
  unfolding enthalpy (calorimetric): 48.1 kcal/mol
  unfolding enthalpy (van 't Hoff): 51 kcal/mol
pH 7
  Tm: 46.2 °C
  heat capacity change of unfolding: 1.36 kcal/mol/K
  unfolding enthalpy (calorimetric): 52.9 kcal/mol
  unfolding enthalpy (van 't Hoff): 52.4 kcal/mol
